Test results taken from article doi:10.1101/2022.07.14.499993 (bioRxiv, 2022).
One block for each binder: values may come before it.

Tests used:
[1] = target: T1, IL-11 receptor α, fusion protein with the Fc domain of human IgG1 (UniProt Q14626 24-370); test: SPR
T1 sequence (looked up): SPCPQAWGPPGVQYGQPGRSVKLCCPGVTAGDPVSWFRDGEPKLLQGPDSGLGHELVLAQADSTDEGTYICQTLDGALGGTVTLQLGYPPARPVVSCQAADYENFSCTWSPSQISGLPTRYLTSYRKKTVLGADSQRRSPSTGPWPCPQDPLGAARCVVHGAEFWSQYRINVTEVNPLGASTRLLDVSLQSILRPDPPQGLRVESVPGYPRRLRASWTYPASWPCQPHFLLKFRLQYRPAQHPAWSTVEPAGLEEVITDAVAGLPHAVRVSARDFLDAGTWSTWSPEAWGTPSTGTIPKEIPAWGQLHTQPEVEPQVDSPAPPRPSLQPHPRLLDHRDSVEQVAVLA

[2] = target: T2, IL-11 receptor α (amino acids 113-318), the receptor part of the IL-11/IL-11Rα fusion (UniProt Q14626 113-318); test: HDX-MS
T2 sequence (looked up): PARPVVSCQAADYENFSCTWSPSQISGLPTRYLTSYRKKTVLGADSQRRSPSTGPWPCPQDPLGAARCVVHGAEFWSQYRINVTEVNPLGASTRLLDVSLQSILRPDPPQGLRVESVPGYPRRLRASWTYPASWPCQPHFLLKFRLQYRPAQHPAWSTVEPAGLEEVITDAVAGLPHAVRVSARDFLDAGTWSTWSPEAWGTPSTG

[3] = target: IL-6/IL-6Rα fusion (interleukin and receptor connected with a (GGGGS)3 linker) (UniProt P08887 114-320; P05231 30-212); test: ITC
[4] = target: T3, IL-11/IL-11Rα fusion (interleukin and receptor connected with a (GGGGS)3 linker) (UniProt Q14626 113-318; P20809 23-199); test: ITC
T3 chain: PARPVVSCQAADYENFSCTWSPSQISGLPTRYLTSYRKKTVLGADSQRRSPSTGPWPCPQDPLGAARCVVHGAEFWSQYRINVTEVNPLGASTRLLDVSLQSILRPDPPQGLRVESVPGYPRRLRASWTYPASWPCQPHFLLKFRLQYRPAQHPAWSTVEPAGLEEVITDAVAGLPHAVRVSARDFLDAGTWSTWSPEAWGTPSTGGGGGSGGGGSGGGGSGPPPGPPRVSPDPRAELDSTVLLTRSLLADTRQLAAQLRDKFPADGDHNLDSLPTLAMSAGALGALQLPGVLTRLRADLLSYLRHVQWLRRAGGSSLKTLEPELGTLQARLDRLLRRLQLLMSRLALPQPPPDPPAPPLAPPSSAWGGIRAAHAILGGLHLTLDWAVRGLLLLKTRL

dH [1]: 11.2 ± 0.717 kcal/mol
B1: Interleukin-11 (ligand, UniProt P20809 22-199, looked up)
chain: PGPPPGPPRVSPDPRAELDSTVLLTRSLLADTRQLAAQLRDKFPADGDHNLDSLPTLAMSAGALGALQLPGVLTRLRADLLSYLRHVQWLRRAGGSSLKTLEPELGTLQARLDRLLRRLQLLMSRLALPQPPPDPPAPPLAPPSSAWGGIRAAHAILGGLHLTLDWAVRGLLLLKTRL

binding result [2]: binds
B2: Interleukin-11 (amino acids 23-199), the interleukin part of the IL-11/IL-11Rα fusion (domain or fragment, UniProt P20809 23-199, looked up)
chain: GPPPGPPRVSPDPRAELDSTVLLTRSLLADTRQLAAQLRDKFPADGDHNLDSLPTLAMSAGALGALQLPGVLTRLRADLLSYLRHVQWLRRAGGSSLKTLEPELGTLQARLDRLLRRLQLLMSRLALPQPPPDPPAPPLAPPSSAWGGIRAAHAILGGLHLTLDWAVRGLLLLKTRL

dH [3]: -6.69 ± 0.239 kcal/mol | dH [4]: -12.2 ± 0.239 kcal/mol
B3: human glycoprotein 130 (amino acids 24-618) (receptor, UniProt P40189 24-618, looked up)
chain: LLDPCGYISPESPVVQLHSNFTAVCVLKEKCMDYFHVNANYIVWKTNHFTIPKEQYTIINRTASSVTFTDIASLNIQLTCNILTFGQLEQNVYGITIISGLPPEKPKNLSCIVNEGKKMRCEWDGGRETHLETNFTLKSEWATHKFADCKAKRDTPTSCTVDYSTVYFVNIEVWVEAENALGKVTSDHINFDPVYKVKPNPPHNLSVINSEELSSILKLTWTNPSIKSVIILKYNIQYRTKDASTWSQIPPEDTASTRSSFTVQDLKPFTEYVFRIRCMKEDGKGYWSDWSEEASGITYEDRPSKAPSFWYKIDPSHTQGYRTVQLVWKTLPPFEANGKILDYEVTLTRWKSHLQNYTVNATKLTVNLTNDRYLATLTVRNLVGKSDAAVLTIPACDFQATHPVMDLKAFPKDNMLWVEWTTPRESVKKYILEWCVLSDKAPCITDWQQEDGTVHRTYLRGNLAESKCYLITVTPVYADGPGSPESIKAYLKQAPPSKGPTVRTKKVGKNEAVLEWDQLPVDVQNGFIRNYTIFYRTIIGNETAVNVDSSHTEYTLSSLTSDTLYMVRMAAYTDEGGKDGPEFTFTTPKFAQGEI
